The values that follow come from the DeepSol protein solubility set.

The data set is described as follows: soluble on expression in E. coli; label from the status in PepcDB or PDB records.
“MTTTLFSSRIIQSALDFDVYKVNMMSAVAALYPDAMVSYKFIVRSEEDLSELLPEVKAEVLKLQDVRFTEDEIAYMKRVAPYLKPEFVEALRHFRFNPQSDVSFHNKTMSDGSSQLRITINGLWKETILYETIIMSIVSEVRSRQRWSDIPFEQFQTVLEDKVRYLKAELERRNITNFKFADMSTRRRFSFQAQRTMLEYLSKELPQCLTGTSNYHLARELDLTPIGTVAHEWFMGHQALVNVRDSQKIALQRWQKMFNGALGIALTDTIGIDAFLKDFDEELSHAYVGVRHDSGCPFTWGEKMIAHYESLGIDPMTKTLVFTDGLNFEQALDICEHFQGRVQVSFGIGTSLANDMGNYVNDQGEAYQPLSIVIKMVTCNGSPVAKISDEPEKAMCEDIFFLMNLKRRFEQPLDLNECRKLIDRLESEGQNYLIDALEHHHHHH”: the “soluble on expression in E. coli” value is given as “soluble”.

As to “MSLMTKENNKSAAETEEWKKEYALRDELLKQEKENKKFEKELYQKQNKVRQAENKLKKEKSEYYNVLEDTEKYRMYIGEVGVQGEGVEVTLEDASYIPEGENVNSYIVHESHIFQVVNELYISGAALVAVNGQRLTHDSYIKCNGPVVTVDGVQHPAPFTVSAIGDPDVLLPSLNIAGGLIDQLSMDHISVSAEKEKNVQMKPILKTKEEGHHHHHH”, the “soluble on expression in E. coli” value is reported as “soluble”.

Consider “MASPRANDAPIVLLHGFTGWGREEMLGFKYWGGVRGDIEQWLNDNGYRTYTLAVGPLSSNWDRACEAYAQLVGGTVDYGAAHAAKHGHARFGRTYPGLLPELKRGGRVHIIAHSQGGQTARMLVSLLENGSQEEREYAKAHNVSLSPLFEGGHHFVLSVTTIATPHDGTTLVNMVDFTDRFFDLQKAVLKAAAVASNVPYTSQVYDFKLDQWGLRRQPGESFDHYFERLKRSPVWTSTDTARYDLSIPGAEKLNQWVQASPNTYYLSFSTERTHRGALTGNYYPELGMNAFSAVVCAPFLGSYRNEALGIDDRWLENDGIVNTVSMNGPKRGSSDRIVPYDGTLKKGVWNDMGTYNVDHLEVIGVDPNPSFDIRAFYLRLAEQLASLRP”, for which the “soluble on expression in E. coli” value was “soluble”.

Consider “MRLNHNSYEIFDFMRSRSAIGVLSKIIITIPPINLRMIIGVMGPEGSYSERAAKLWARKNGLRGAEFHYFADIEDAFLAAVGGKTDISVVPVENSIEGSVGVTLDLLLENEAVIIGEIVVKIEHCLLSKGEPEKIRVILSHPQGLAQCRHFLKTHFPEAELRSTGSTSHAARLAGEFEEMAAIASPEAAERYGLKILLSNVQDRKENHTRFIVVRGGEKVLSGKIKGKADSGEKLNTVFGRNAEHKLCSETETGTENSSSYAFKTSLIVYLEKDRPGALYEPLGFFAKRGINLTKIESRPSKKELGDYYFYIDLEGNISDVLIKDALEDIKSKASKKSRSSTLKVLGSYPAFKK”, for which the “soluble on expression in E. coli” value is “not soluble”.

For “YNSLSFLMRHDMIAGFHWFGPWGRDTFISMPGVLLVSGRYNEARRVLEHYAERIQDGMIPNTQDVEALRFSADTSLWFIYAVQKYLEYAGDDDFARQMLVPIKSIITAYIKGNSMFHLDDDLVTLTGSPLTWMDAMVSGKPVTPRIGKPIEINALWYNALSFYSRTAHDITGEDTEMFSKLARRIKQKFRAKFIKGDAVLDVSDPDDMKFRPNFLIPYFLPYPLLNDRKFVDLAWEKLVTPYGLRTLSPDDPDYVPTYSGPQPERDMAYHNGTVWPWLAGIFITAAVKTGYDKHALLEKFAPLFSMSRIPEIFDGSGTGIPKGCIMQAWSHGEIARAYFEDLRGGRS”, the “soluble on expression in E. coli” value is reported as “not soluble”.

With “MGSDKIHHHHHHMAETSIEWTDVTWNPVAGCTVLTAGCTNCYAMRMAARLEAMGVEKYAGLTRKSGGRAKWTGRIFLDRKALSIPASWSKPRRVFVNSMSDLFHSDVPTDFISDVWKVMAQTPRHTYQILTKRPDRMVEIVPGLAKLRNVWLGTSVEDARVIYRIDKLRQVPAAVRFVSFEPLIGSVSGAGLRNIHWAIVGGESGPKARSMDPAWVDEIESMCRDQGAAFFFKQWGGKNKKAAGRTLNGRLYDEMPAPSMP”, the “soluble on expression in E. coli” value is recorded as “not soluble”.

Take “MAKIGFVSLGCPKALVDSEQILSRLKALGYETSPSYEEAELVIVNTCGFINEAVEESLEAIGEALKENGKVVVTGCLGARPEKIRERHPQVLAVTGPGEVERVLEAVQEVLPAPRDPFLDLIPPQVKLTPRHYAYVKLSEGCDHRCSFCIIPKLRGRLRSRDAADVLAEAARLVATGTKELLLVAQDLSAYGVDLGHRESLWGDRPVRAELKDLLTHMAELGVWIRLHYVYPYPHVKDLLPLMAEGKVLPYLDVPLQHASPRILRLMRRPGGYESHLKTLKAWREVVPELALRSTFIVGFPGETEEDFQILLDFLEEAELDRVGVFAYSPVEGAEANRLPDPVPEEVKEERKARLLEVQARVSLRKNQRFVGKTLEVLVDELPEPGLAVGRTYRDAPGVDGVVYVETDGTVRVGERIPVRILRADTYDLHGVQAAAALEHHHHHH”: the “soluble on expression in E. coli” value is recorded as “soluble”.

For the sequence “MGSDKIHHHHHHMRWGGASPIEATVRDLSLSRIYMRVTGDSLSTNAQDCPSSEILRIAVVSSPRSGNSWIRSTLAGALSMQEIAIHNYLDAPAVLPQRCFLQIHWYREPNFQAWLRENQFRVLTVARHPLDVLVSALHYIRYEPGTSRWLEGNVKLPGELANASPSSPEFLEYALGMGAEDLLSITYQWWNDPEVLRLRYEDAVANPEVVLGNQIAALGGSAQDVVPWLARLSIDKMRATPNRHGWQGSPGLWRRLIVPQDAIRIYRRHRRIFDTLGYTIRPYFLTRASAYRNWMERL”, the “soluble on expression in E. coli” value is “not soluble”.

As to “MGSDKIHHHHHHMTIYSPDTINFNGVNGDRYWFDEPFPYTGVGDIDERLSGFPVAVFLPHHRPRQETPLVIGLQGMCAPYGWNAFIVPTLTEMGIAVALFDPPLSGERSLVRTSTTLVQNEIKPLIDRGIPFDTALFLSIFRTTARDISKIREFCGDRYGLTDSRLALFGVSMGVLLSAYAFTANSLGDRLLGTIGHADLPSFAKSWGRPFLPDLAASPLGGLAESLLQRLQPDLAPLFQLLRLTKNLKYQDEYAWDCNPMNYIQQVDSHRRVRFLVGANDSIVKIKDARACAQKFPDGDCYVVPGMGHGTRQSGVSFVDHVRYFLATQLGDWCG”, the “soluble on expression in E. coli” value was “not soluble”.

Turning to “MGSSHHHHHHGGTGENLYFQGGSGAGIDYSKWDKLCDSGTSSGTEYEGDRDDKGHDDSSRAPQVTRLEYPSRVTLGPNGVQLEQVPPKASASPFPGTCAPPEETDNGSVAVARCPIKEESFHAEYDTGASNASSHATGNTAGRRDDDQERMGATDDDEDLLYESLARNGGREGSHHWWTQTEDTVTVSFLVPWETKGKSVTEFRLYEARSTTALESELLQAHLEITILVRPACLTSPSSGPSASAAPLRIHQVFRYPVKLSEDLIDGCWQLHFMPRRHLRLLVVQLFKEPVGLGMTLWWDRCFVTDTTSVIADTQTIPDRKRRMEATPGSKEKAGQFRKVWADAHEEFRRRAQERKRKIIE”, the “soluble on expression in E. coli” value is reported as “not soluble”.

As for “MIQDVIEKKLSDEFQPEFLKVINESDMHNVPRGSESHFKVTVVSERFAGLRPVARHRLVNQTLADELANHIHALAIHTYTTQEWQQMNQESPESPMCLGGSRKSAQ”, the “soluble on expression in E. coli” value was “not soluble”.

For the sequence “MGSMSMNAEQTVAELIARSNRLGSDPKNTNYAGGNTSAKGTDTDPVTGQPVELLWVKGSGGDLGTLTENGLAVLRLDRMRALVDVYPGVEREDEMVAAFDYCLHGRGGAAPSIDTAMHGLVDAAHVDHLHPDSGIALATAADGEALTKQIFGDRVVWVPWRRPGFQLGLDIADIKRRNPQAIGTILGGHGITAWGSTSAEAEAHSLEIIETAERYIAENGRPEPFLEHHHHHH”, the “soluble on expression in E. coli” value is listed as “not soluble”.

As to “MGSDKIHHHHHHMRGKILIFLHAHLPYVHHPEYDHFLEERWLFEAITETYIPLLMMFDEIEDFRLTMSITPPLMEMLSSRDLQEKYERHMEKLIELANKEVERTKKEHPLKHKMAKFYREHFEKILNVFRSYDGNILEGFKKYQETGKLEIVTCNATHAFLPLYQMYPEVVNAQITVGVKNYAKHMTLHPRGIWLAECGYYQGLDLYLAQNNVEYFFVDSHAFWFADEQPRYGVYRPIMTPSGVFAFARDPESSEQVWSAAVGYPGDPRYREFYRDIGFDREMEYIKDYIDPSGVRINTGIKYHRITSKSLDASQKEYYDIDLAMEAVEEHARDFLHKKESQARRLMDIMGVEPVIVAPFDAELFGHWWFEGVFFLKRFFELVNESKDLKLVTASEVIDTLEEVQIATPADSSWGAGGYYETWLNGTNDWIYRHLHEMIERMIDLSKKYYNSSDPLVERVLNQMLRELFLAQSSDWAFIMTTRTSVQYAENRTKLHIKRFLNLYDQLVSGRIDEEMLRYYEWTDAIFPEINFRVMARDVI”, the “soluble on expression in E. coli” value is given as “not soluble”.

Consider “MSLAITTSPPTVSDTKRIFYANYKKLLLPLYNTPIQNMLVKQHIHRYNKNYTYSDVSALGIVTTLDSVLNTFPDDEKTSIKNAFIISLNEDPEMYYSNIESLKPYAKSSHLGPNKHGNTLQKSLYDIAINDKYVYSSFAAVGIFKLLQMNGNYTGNSVKHLSESIGFKGELVHKDIATFFSLLKYIESSQKLADDIREESLKREGHHHHHH”, for which the “soluble on expression in E. coli” value is recorded as “soluble”.

For “MSRRVATITLNPAYDLVGFCPEIERGEVNLVKTTGLHAAGKGINVAKVLKDLGIDVTVGGFLGKDNQDGFQQLFSELGIANRFQVVQGRTRINVKLTEKDGEVTDFNFSGFDVTPADWERFVNDSLSWLGQFDMVCVSGSLPAGVSPEAFTDWMTRLRSQCPCIIFDSSREALVAGLKAAPWLVKPNRRELEIWAGRKLPEMKDVIDAAHALREQGIAHVVISLGAEGALWVNASGEWIAKPPAVDVVSTVGAGDSMVGGLIYGLLMRESSEHTLRLATAVAALAVSQSNVGITDRPQLAAMMARVDLQPFN”, the “soluble on expression in E. coli” value is listed as “not soluble”.

Take “MSSDIDELRREIDIVDVISEYLNLEKVGSNYRTNCPFHPDDTPSFYVSPSKQIFKCFGCGVGGDAIKFVSLYEDISYFEAALELAKRYGKKLDLEKISKDEKVYVALDRVCDFYRESLLKNREASEYVKSRGIDPKVARKFDLGYAPSSEALVKVLKENDLLEAYLETKNLLSPTKGVYRDLFLRRVVIPIKDPRGRVIGFGGRRIVEDKSPKYINSPDSRVFKKGENLFGLYEAKEYIKEEGFAILVEGYFDLLRLFSEGIRNVVAPLGTALTQNQANLLSKFTKKVYILYDGDDAGRKAMKSAIPLLLSAGVEVYPVYLPEGYDPDEFIKEFGKEELRRLINSSGELFETLIKTARENLEEKTREFRYYLGFISDGVRRFALASEFHTKYKVPMEILLMKIEKNSQEKEIKLSFKEKIFLKGLIELKPKIDLEVLNLSPELKELAVNALNGEEHLLPKEVLEYQVDNLEKLFNNILRDLQKSGKKRKKRGLKNVNT”: the “soluble on expression in E. coli” value is given as “soluble”.

In the case of “ARIGLYEKALPQNLTWAERLTWAKKLGFDFLEMSIDESDERLARLAWTPSQLQEFSQLMVKEDFFIHSLCLSGHRRFPLGSLNKETREKGRKILSQAIRLAHQLNIRVIQIAGYDVFYEEKTAETREFFLQGLKKGVEEAAQYGVILAVEIMDDPFMNSIQKFLEIKEQIPSPFLHVYPDLGNLSAWPENNPAVELEKGIAEIAAIHLKDTFAVTDTFEGKFREVTFGEGCVDFTGLLKTLKRLNYSGPFLIEMWNETDLNFQEKIQAAQQYLYPKLAEVGYY”, the “soluble on expression in E. coli” value is listed as “not soluble”.

As for “MELEFKCSDVGVWKEALSSYDSRIESLNKPELVSLDQFYRIKLPCLLHDRDPNPYLTTSELSQLMKWKLSRGKWRPRLLDFVSSLDDSVVKSASEKAFKSLPDISKAVKELTVLKGVGAATASAVLAAYAPDIAPFMSDEAMEVALGNSKDYSLKQYLLFATKLQDKAKELKLKGEWDGPSDIERALWSCTVRAKSQPEKSSSGKKRKR”, the “soluble on expression in E. coli” value is “not soluble”.

For “MSLKNQIEKLLENFVPEGQQEKTDFKVFQDFAADEKNLNRSSIAHFTASVFVLNESHDKILGIYHKIYQSWGWVGGHADGNADLLAVAVKEVQEETGLRSFKKLSEMPISIEALPVFGHHHRKYGYVSAHIHLNVTFLFEAKESDSLQKNTDETGGLAWIPLEKFSEKSSEKEMRVIYDKIITRIINKEGHHHHHH”, the “soluble on expression in E. coli” value was “soluble”.

As to “MSVTQIDLDDEALADVMRIAAVHTKKEAVNLAMRDYVERFRRIEALARSRE”, the “soluble on expression in E. coli” value is “soluble”.
